Target: A. franciscana ATP synthase c-subunit (c8-ring) (A. franciscana (endogenous in A. franciscana mitochondria))
Experiment: cryo-EM structure; single-particle cryo-EM of the ATP synthase monomer purified from A. franciscana mitochondria in DDM at pH 7.0; rotational states 1, 2 and 3a; local refinement of F1 and FO

- stoichiometry N: 8
Substance: A. franciscana ATP synthase c-subunit (c8-ring) (natural protein)
